Test results as given in patent US20260209387A1, “SINGLE-DOMAIN ANTIBODY FOR INHIBITION OF NEUTROPHIL ELASTASE ACTIVITY” (UNIVERSITE DE LIEGE, priority 2023, published 2026).

Key:
[1] = biological target: T1, porcine pancreatic elastase (pPE) (Sus scrofa, UniProt P00772); test: pPE inhibition, substrate Succinyl-Ala-Ala-Ala-paraNitroAnilide; format: biochemical; conditions: chromogenic substrate
T1 construct: purchased Sigma
Source text: (§1) To determine whether NbE201 was specific for hNE, we first investigated its ability to inhibit several serine proteases: pancreatic elastase from pork (pPE, 39.2% sequence identity, from Sigma), mice neutrophil elastase (mNE, 74.9% sequence identity, from EPC) and with two other human serine proteases present in the lung: proteinase 3 (hPR3 from EPC, 54.7% sequence identity) and cathepsin G (hCG from Calbiochem, 36.7% sequence identity). The substrate used were Succinyl-Ala-Ala-Ala-paraNitroAnilide (1 mM in 0.1 M Tris pH 7.5 with NaCl 0.5 M and NaN3 0.01%, % w/v from Sigma-Aldrich) for pPE, MeOSuc-Ala-Ala-Pro-Val-AMC (100 μM in Tris 50 mM, NaCl 1 M, 0.05% (% w/v) Brij-35, pH 7.5) for mNE, N-Succinyl-Ala-Ala-Pro-Phe p-nitroanilide (0.45 mM in 100 mM HEPES pH 7.5, from Sigma Aldrich) for hCG and Boc-Ala-Ala-Nva-SBzl (0.22 mM in 100 mM MOPS pH 5.0 0.5 M NaCl, 100 μM DTNB, DMSO 10%, from EPC) for PR3. mNE (rmELA2 from R&D systems, United Kingdom) was first activated according to the supplier information. In brief, mNE was incubated with recombinant mouse active cathepsin C/DPPIy (rmCathepsin C from R&D systems) in MES 50 mM, NaCl 50 mM, pH 5.5 for 2 h at 37° C. The enzyme concentration in the assay was 6 nM, 14.7 nM, 25 nM, 5 nM for PPE, mNE, hCG and hPR3, respectively. Different molar ratios of NbE201: Enzyme were tested. […]

[2] = biological target: T1, porcine pancreatic elastase (pPE); test: BLI binding to other serine proteases: pPE; conditions: 50 nM protease
Procedure: (§2) The specificity of NbE201 for hNE was also investigated by BLI. Biotinylated NbE201 (10 μg/mL) was immobilized on streptavidin biosensors (SA, Sartorius) following provider's indications. The biosensors were then immersed in a 50 nM solution of a serine protease. The proteases tested were human cathepsin G (hCG), human proteinase 3 (hPR3), mouse pancreatic elastase (mPE), mouse neutrophil elastase (mNE) and porcine pancreatic elastase (pPE). hNE was used a positive control. The association and dissociation were measured for 70 s and 320 s respectively, in kinetic buffer (KB, Sartorius). The experiments were carried out at 30° C. in 384-wells black-bottom microplates in polypropylene (Greiner Bio-One, Belgium) and with orbital agitation (1000 rpm).

human cathepsin G (hCG) = biological target: T2, human cathepsin G (hCG) (Homo sapiens, UniProt P08311); test: hCG inhibition, substrate N-Succinyl-Ala-Ala-Pro-Phe p-nitroanilide; format: biochemical; conditions: chromogenic substrate
T2 construct: purchased Calbiochem
T2 sequence (P08311 21-244): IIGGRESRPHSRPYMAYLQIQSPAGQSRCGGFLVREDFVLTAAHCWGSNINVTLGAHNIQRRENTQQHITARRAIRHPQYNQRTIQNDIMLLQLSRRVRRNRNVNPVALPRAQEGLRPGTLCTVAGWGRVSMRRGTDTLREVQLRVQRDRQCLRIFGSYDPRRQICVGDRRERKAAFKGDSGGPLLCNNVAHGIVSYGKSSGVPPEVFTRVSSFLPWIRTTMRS
Source text: as §1

[3] = test system: hNE-induced alveolar-capillary damage; test: hNE-induced acute lung injury mouse model; format: in vivo, mice; conditions: nasal instillation 15 min prior to hNE 25 μg; molar ratio Nb/HNE 4/1
Procedure: The in vivo efficacy of NbE201 was determined using a mouse model of acute lung injury induced by nasal instillation of HNE (L agente et al., 2009, American Thoracic Society International Conference Abstracts. (American Thoracic Society), A5668. doi: 10.1164/ajrccm-conference.2009.179.1_MeetingAbstracts.A5668). […]
It was determined with the hemoglobin assay kit (Sigma) and performed according to the manufacturer's instructions. […] A measurement of the optical density at 400 nm allowed the quantification of this stable complex. […]
Histological sections of the lung were digitized using a panoramic scan 2 (3[…]). […] This semi-automated analysis made it possible to quantify the damaged alveolar surface. […] The percentage of injured surface was determined by the ratio: % injured area=(injured area/alveolar area)×100

[4] = test system: mouse pancreatic elastase (mPE); test: BLI binding to other serine proteases: mPE; conditions: 50 nM protease
Procedure: as §2

T1 sequence (P00772 27-266): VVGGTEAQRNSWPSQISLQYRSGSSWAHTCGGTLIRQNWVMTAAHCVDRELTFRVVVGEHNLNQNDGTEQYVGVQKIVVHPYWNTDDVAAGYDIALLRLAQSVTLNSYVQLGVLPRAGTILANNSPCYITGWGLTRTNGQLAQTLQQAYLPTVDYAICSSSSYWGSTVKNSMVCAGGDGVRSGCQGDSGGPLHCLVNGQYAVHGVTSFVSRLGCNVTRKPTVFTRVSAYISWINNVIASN

inhibition of porcine pancreatic elastase [1]: does not inhibit | binding to pPE by BLI [2]: does not bind to the other proteases | inhibition of human cathepsin G (human cathepsin G (hCG)): does not inhibit | binding to mPE by BLI [4]: does not bind to the other proteases
B1: NbE201: anti-hNE ISVD (VHH/nanobody) from immunized lama, amino acid sequence SEQ ID NO: 4 (protein)
VHH: QVQLQESGGGLVQAGGSLRLSCVVPGRTISLYRMGWFRQAPGKEREFVAGINWSGDMTDYVDSVKGRFTISRDNAKNTVYLEMNSLKPEDTAIYYCTADPKLLPLADSSYGYWGQGTQVTVSS
protection against hNE-induced alveolar-capillary damage [3]: protects the lungs from developing alveolar-capillary damage
